Results on 1 substance are retold here after PMC3258161.

Broadly, the stoichiometry N is the number of molecules, sites or subunits per partner or assembly.

For the assay, the target named is PL6S* (PvuII-L6-I-SceI* fusion enzyme: wt PvuII fused via linker L6 to I-SceIΔC9,D44N,D145A) (UniProt P03882). The experiment in a line: AUC.

The substance “PL6S* (PvuII-L6-I-SceI* fusion enzyme: wt PvuII fused via linker L6 to I-SceIΔC9,D44N,D145A) (from UniProt P03882 1-226)” yielded a stoichiometry N of 2.
